Results taken from the Human Domainome abundance scans (Beltran et al. 2025).
± gives the uncertainty stated by the source.

B1: Chromodomain-helicase-DNA-binding protein 4, residues 623 to 675; numbered along this chain, Q14839 (parent)
chain: MIHRILNHSVDKKGHVHYLIKWRDLPYDQASWESEDVEIQDYDLFKQSYWNHR

Variants of: B1
Assay: abundance fitness (aPCA) (normalised: wild type 0, dead -1); higher = more abundant; growth selection in yeast, the domain comes from the species named
Settings: Homo sapiens

In order of rising abundance fitness:
1. G14E  -1.12 ± 0.28
2. D11M  -1.09 ± 0.28
3. G14T  -1.08 ± 0.14
4. G14M  -1.05 ± 0.2
5. D11K  -1.03 ± 0.36
6. H8K  -0.956 ± 0.24
7. D11V  -0.951 ± 0.14
8. D11Q  -0.928 ± 0.21
9. G14A  -0.919 ± 0.13
10. H8V  -0.918 ± 0.092
11. D11P  -0.913 ± 0.13
12. H17P  -0.91 ± 0.25
13. V10G  -0.895 ± 0.11
14. D11L  -0.875 ± 0.1
15. H8W  -0.863 ± 0.15
16. G14H  -0.86 ± 0.1
17. H8M  -0.847 ± 0.14
18. H8G  -0.832 ± 0.11
19. H8P  -0.831 ± 0.17
20. K13P  -0.828 ± 0.11
21. H8Q  -0.813 ± 0.2
22. D11I  -0.812 ± 0.12
23. H8L  -0.806 ± 0.09
24. H8Y  -0.803 ± 0.14
25. D11Y  -0.792 ± 0.12
26. H8T  -0.791 ± 0.21
27. G14C  -0.785 ± 0.12
28. G14S  -0.768 ± 0.087
29. S9P  -0.766 ± 0.15
30. D11R  -0.762 ± 0.12
31. G14R  -0.761 ± 0.1
32. V16G  -0.757 ± 0.15
33. H17G  -0.756 ± 0.094
34. H8N  -0.75 ± 0.17
35. V16S  -0.745 ± 0.13
36. G14D  -0.727 ± 0.11
37. G14W  -0.726 ± 0.18
38. G14F  -0.716 ± 0.11
39. V16W  -0.715 ± 0.33
40. V10N  -0.714 ± 0.14
41. G14P  -0.714 ± 0.11
42. G14Q  -0.714 ± 0.16
43. H8S  -0.713 ± 0.11
44. D11W  -0.694 ± 0.22
45. V10D  -0.682 ± 0.15
46. D11A  -0.679 ± 0.12
47. G14I  -0.656 ± 0.12
48. H8I  -0.645 ± 0.12
49. H8R  -0.634 ± 0.1
50. G14Y  -0.634 ± 0.093
51. H15W  -0.631 ± 0.15
52. V16D  -0.611 ± 0.17
53. D11G  -0.597 ± 0.15
54. V16P  -0.59 ± 0.16
55. K13I  -0.588 ± 0.1
56. V10P  -0.571 ± 0.12
57. V10C  -0.562 ± 0.12
58. V10H  -0.557 ± 0.14
59. S9G  -0.553 ± 0.098
60. V16Q  -0.549 ± 0.16
61. V16E  -0.545 ± 0.2
62. V10W  -0.533 ± 0.13
63. D11T  -0.518 ± 0.097
64. V16A  -0.516 ± 0.12
65. K12F  -0.514 ± 0.13
66. H15D  -0.511 ± 0.14
67. D11E  -0.499 ± 0.22
68. V10M  -0.495 ± 0.1
69. K13W  -0.492 ± 0.16
70. S9N  -0.484 ± 0.14
71. V10S  -0.47 ± 0.089
72. G14N  -0.451 ± 0.084
73. V10E  -0.447 ± 0.12
74. H17D  -0.43 ± 0.12
75. H15Y  -0.409 ± 0.11
76. S9V  -0.407 ± 0.11
77. G14K  -0.404 ± 0.21
78. D11C  -0.403 ± 0.12
79. S9A  -0.398 ± 0.16
80. V16F  -0.382 ± 0.16
81. V10Q  -0.377 ± 0.14
82. K13L  -0.36 ± 0.078
83. K13T  -0.344 ± 0.088
84. H15F  -0.344 ± 0.17
85. S9D  -0.341 ± 0.14
86. K13G  -0.335 ± 0.089
87. V10L  -0.332 ± 0.08
88. H17F  -0.312 ± 0.2
89. V16R  -0.309 ± 0.14
90. D11S  -0.305 ± 0.084
91. H17L  -0.292 ± 0.084
92. V16H  -0.288 ± 0.16
93. V10I  -0.286 ± 0.097
94. K13C  -0.267 ± 0.093
95. K13V  -0.263 ± 0.088
96. V10R  -0.262 ± 0.085
97. H17A  -0.252 ± 0.091
98. K13A  -0.25 ± 0.085
99. K12R  -0.246 ± 0.12
100. H17E  -0.242 ± 0.093
101. K12L  -0.239 ± 0.099
102. V16C  -0.22 ± 0.17
103. K13Y  -0.214 ± 0.092
104. V10F  -0.207 ± 0.11
105. D11N  -0.201 ± 0.085
106. S9W  -0.198 ± 0.1
107. K13R  -0.196 ± 0.084
108. K12W  -0.19 ± 0.15
109. K12Y  -0.184 ± 0.13
110. S9Y  -0.177 ± 0.11
111. K12V  -0.171 ± 0.1
112. H15C  -0.171 ± 0.14
113. H15L  -0.171 ± 0.089
114. K13M  -0.162 ± 0.12
115. S9L  -0.158 ± 0.092
116. K12E  -0.158 ± 0.2
117. V10K  -0.144 ± 0.12
118. K12I  -0.136 ± 0.11
119. H15M  -0.134 ± 0.1
120. K13Q  -0.133 ± 0.11
121. S9F  -0.127 ± 0.1
122. H15A  -0.126 ± 0.087
123. K13N  -0.123 ± 0.093
124. H15E  -0.123 ± 0.13
125. H15V  -0.122 ± 0.088
126. S9E  -0.112 ± 0.14
127. V16L  -0.11 ± 0.093
128. S9M  -0.105 ± 0.12
129. K12D  -0.103 ± 0.15
130. K13S  -0.098 ± 0.073
131. S9Q  -0.095 ± 0.12
132. V10T  -0.093 ± 0.1
133. V16K  -0.088 ± 0.12
134. K12Q  -0.084 ± 0.25
135. K12P  -0.083 ± 0.14
136. K13F  -0.079 ± 0.088
137. K12G  -0.078 ± 0.091
138. K12S  -0.074 ± 0.092
139. K12N  -0.073 ± 0.12
140. S9T  -0.068 ± 0.096
141. H17I  -0.068 ± 0.13
142. S9H  -0.066 ± 0.11
143. K13E  -0.066 ± 0.13
144. S9C  -0.062 ± 0.11
145. K13H  -0.062 ± 0.09
146. V16I  -0.059 ± 0.11
147. V16T  -0.059 ± 0.1
148. V16M  -0.053 ± 0.11
149. H17N  -0.052 ± 0.15
150. H17M  -0.034 ± 0.094
151. H15S  -0.023 ± 0.089
152. S9I  -0.021 ± 0.11
153. H15Q  -0.021 ± 0.11
154. V16Y  -0.016 ± 0.17
155. K12A  -0.01 ± 0.1
156. K12M  0 ± 0.13
157. K12H  0.01 ± 0.14
158. H15I  0.029 ± 0.12
159. H17C  0.031 ± 0.15
160. H15R  0.057 ± 0.079
161. H15N  0.081 ± 0.12
162. H17K  0.094 ± 0.11
163. K13D  0.098 ± 0.1
164. V10Y  0.115 ± 0.12
165. S9K  0.139 ± 0.095
166. S9R  0.156 ± 0.076
167. H15K  0.205 ± 0.13
